Sequences and labels used below:
B1: LINE1-full (parent)
chain: UACGUAGGUGGUUUUCCCCUGAUAGUGCUAAGGGGGCCUGGAAGUUUGGACUGGGCAGAGCUCAACACAGCGUGGCAAAGUGGCUGUGGCUAGACUGCCUCUCUGGAUUCCUCGUCACUCAGCAGGGCAUCUCUGAGAGAAAUGCC

The data set covers variants of B1. Briefly: self-cleavage, relative activity (ratio to wild type); higher = more cleavage; in vitro, sequencing; the parent is a self-cleaving ribozyme.
For the variant U45C G106U, the self-cleavage was determined as 1.17.

Consider U45C G106A, for which the self-cleavage was 2.

With U47C C113A, the self-cleavage came out at 1.78. On to U47A A59U, for which the self-cleavage is 0.81. In the case of U47C G72A, the self-cleavage was determined as 0.94.

Regarding U46A A77G, the self-cleavage amounted to 2.14. The result for U47C G89A reads 0.02. The result for U46C A67U reads 0.12.

Take U45C U47A: the self-cleavage was found to be 1.3. On to U47C A107G, for which the self-cleavage was 1.43. The result for U47A U130C reads 1.51; that for U45C U73A, 1.68. U45C U73C: the self-cleavage is 1.92. The figure for U46C A57C is 0.31; for U46C A57G it is 1.04; for U47C G88A it is 0.07. U46G A141G: the self-cleavage is 1.16. As to U46C A94G, the self-cleavage turned out to be 0.4. In the case of U46A A94G, the self-cleavage was 0.16. The figure for U46A U73C is 1.5; for U46A U73A it is 1.35. For the variant U46G U73G, the self-cleavage was 1.5. With U45C U62C, the self-cleavage was determined as 0.07. Turning to U47C A64G, the self-cleavage was 0.31. On to U47C A64U, for which the self-cleavage was found to be 0.52. For U46C C51A, the self-cleavage is 1.52.

With U46C G89A, the self-cleavage was 0.04.

In the case of U47C A69G, the self-cleavage stood at 0.44. The figure for U45G U109C is 0.66; for U45C G80A it is 2.16; for U46C A121U it is 1.25.

On to U45G U47A, for which the self-cleavage was 1.19. The result for U47C C118A reads 0.46; that for U47A A140G, 0.99.

With U46C G48C, the self-cleavage is 1.2. For U46C G48U, the self-cleavage is 1.61. Turning to U46A A64C, the self-cleavage was 0.24. The figure for U47C U81C is 1.51. The result for U46A A121U reads 1.43. In the case of U46G G72A, the self-cleavage is 1.07. The result for U46C A129C reads 1.99.

For the variant U47C G60A, the self-cleavage was determined as 0.03.

As to U45C C128U, the self-cleavage is 1.32.

Turning to U46C U104C, the self-cleavage stood at 1.96. The result for U46C A142G reads 1.35; that for U45C U102C, 1.55; that for U46A U87C, 0.19. Regarding U45C C120G, the self-cleavage was 2.05. In the case of U47A A64G, the self-cleavage is 0.2. U45C U100A: the self-cleavage turned out to be 0.58. Take U45C U100C: the self-cleavage came to 1.93. The result for U45C U81C reads 0.94; that for U46C C61U, 0.04. The result for U46C U119C reads 1.13; that for U46C U119G, 1.02; that for U46C U119A, 1.26. The result for U46C G126A reads 0.59; that for U46C G55A, 0.59. For the variant U45G A107G, the self-cleavage came out at 0. The figure for U46C C101U is 2.71; for U45G U119G it is 0.44; for U46C U73G it is 1.65. For U46C U81C, the self-cleavage worked out at 1.46. The figure for U45G G97A is 0.07; for U47C A94C it is 0.12. In the case of U47C A94U, the self-cleavage worked out at 0.52. As for U46C A59G, the self-cleavage was determined as 0.16. On to U45G U46C, for which the self-cleavage came out at 1.31. As for U47A U143G, the self-cleavage turned out to be 1.2. The result for U47A U143A reads 1.27; that for U46A U47A, 1.09. The figure for U46A U47C is 1.13; for U46C C76U it is 2.44. Take U45G A77U: the self-cleavage worked out at 1.15. For the variant U46C U112C, the self-cleavage came out at 1.78.

With U46C U112A, the self-cleavage was found to be 1.26. The result for U47A U87C reads 0.19.

Turning to U46A A142G, the self-cleavage came to 1.45. The figure for U46C G93A is 0.07. The result for U45C U46G reads 1.37.

For the variant U45C U46A, the self-cleavage was 0.74. The result for U45C U46C reads 1.84. With U47C A65G, the self-cleavage was 0.09. For the variant U47C A65C, the self-cleavage is 0. The figure for U46A U108C is 1.37.

Take U47A U100C: the self-cleavage was determined as 1.81. U46C G82A: the self-cleavage was 2.42. The figure for U45C G93U is 0.03; for U46A C71A it is 0.25; for U47C G126A it is 1.84. Turning to U47C A79G, the self-cleavage stood at 1.39.

Take U45G G88A: the self-cleavage amounted to 0.06. In the case of U46C C128U, the self-cleavage came to 0.6. The figure for U47A A136G is 1.52; for U46C G125U it is 0.8.

U47A A50U: the self-cleavage amounted to 0.87. The result for U47C A129G reads 1.49; that for U45G U73A, 1.49; that for U47C G75C, 0.97. The result for U46A G114A reads 1.08; that for U47A A141G, 1.37.

In the case of U46A U134C, the self-cleavage was found to be 1.84. The result for U47A A57G reads 0.54. The figure for U46C C68U is 0.44; for U47C U108C it is 1.62.

Turning to U47C U108G, the self-cleavage came to 1.41. The figure for U46G A69G is 0; for U46G A69U it is 0.1. The result for U46G A50G reads 0.92. In the case of U47C C56U, the self-cleavage came out at 0.42. As to U46A A107U, the self-cleavage came out at 1.36. Turning to U46A A107G, the self-cleavage was determined as 1.43. The result for U46C G139U reads 1.7. Turning to U45G A129U, the self-cleavage is 0.67. Take U47C U87A: the self-cleavage was 0.12. The figure for U45G C120U is 1.49; for U46A G125C it is 1.35. For U46A G70A, the self-cleavage turned out to be 0.24.

As to U46C U102C, the self-cleavage was 1.13.

With U46C U102A, the self-cleavage came to 1.09. As for U45G U87A, the self-cleavage worked out at 0.07.

Consider U45G C113A, for which the self-cleavage turned out to be 0.98. The result for U47A A77G reads 2.01; that for U47A G53A, 1.23; that for U46C U130C, 1.54. The figure for U46C U130A is 1.68; for U46C U108C it is 1.69; for U46C U108G it is 1.15. As for U46C U108A, the self-cleavage was determined as 1.4. For U46A A67U, the self-cleavage is 0.1.

For U46A A67G, the self-cleavage worked out at 0.22. Take U46A G75A: the self-cleavage was 0.9.

Regarding U46A G75U, the self-cleavage turned out to be 0.84.

Take U47A C118A: the self-cleavage is 0.95. U47A C71U: the self-cleavage stood at 0.9. In the case of U46A U119C, the self-cleavage turned out to be 0.92. Take U47C C98U: the self-cleavage amounted to 0.52. Consider U46C A78U, for which the self-cleavage was 1.85. The result for U45C G58A reads 0.04; that for U45C U52C, 0.95. The figure for U47C A140U is 0.6; for U45C U85A it is 0.12; for U45C U85G it is 0.26. The result for U46A C113U reads 1.16.

Consider U47A A124C, for which the self-cleavage was 1.18. The result for U47C A59G reads 0.12. The figure for U47C A59U is 0.6; for U46A U130G it is 1.39; for U45C U108C it is 2.11.

Regarding U45C U108A, the self-cleavage was found to be 1.15.

Turning to U45C U104C, the self-cleavage is 1.42. Turning to U46C U52A, the self-cleavage worked out at 1.45. Regarding U45C G82A, the self-cleavage was 1.86. U46A A124U: the self-cleavage amounted to 1.11.

Regarding U46A A124G, the self-cleavage was 0.8. The figure for U46C A138G is 1.29. The figure for U46C A138C is 0; for U46C A77C it is 1.01. The figure for U47A U119A is 1.34; for U46A C146U it is 1.63; for U47A U96A it is 0.08.

For the variant U46C U87C, the self-cleavage was 0.43. Consider U46C U87A, for which the self-cleavage came out at 0.13. With U46C U100C, the self-cleavage came out at 1.89. In the case of U46A U143C, the self-cleavage was 1.38. The result for U45C G127A reads 0.55. With U47A U81A, the self-cleavage was found to be 1.11.
